Patent US20190135928A1 (Bristol-Myers Squibb, published 2019)

Legend:
[1] = target: T1, TL1A expressed on transfected CHO cells (Homo sapiens (Human), UniProt O95150 1-251); assay: FACS titration on TL1A CHO cells, detection with PE anti-human IgG (Fc specific); the box prints no unit, the axis is IgG (nM)
T1 construct: also called TL1A CHO cells; TL1A expressing CHOs cells
T1 sequence: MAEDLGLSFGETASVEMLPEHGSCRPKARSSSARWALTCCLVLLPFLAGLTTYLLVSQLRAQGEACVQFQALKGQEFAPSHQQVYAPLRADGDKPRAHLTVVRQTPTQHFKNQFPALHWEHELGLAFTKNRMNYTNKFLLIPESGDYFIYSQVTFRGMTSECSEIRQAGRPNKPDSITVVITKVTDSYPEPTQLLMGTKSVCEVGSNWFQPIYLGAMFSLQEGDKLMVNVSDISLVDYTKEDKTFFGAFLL
Method: (§1) Dilutions of TL1A antibody were incubated with 10⁵ TL1A CHO cells in 100 ul FACS buffer for 1 hr. Cells were washed two times with FACS buffer and antibody binding was detected by staining with PE anti human […] antibody and evaluated by FACS.
(§2) FACS assays were used to verify that antibodies of the disclosure are binding to native TL1A expressed on cells. Briefly, dilutions of antibody in PBS 1% BSA plus 0.5% sodium azide (FACS buffer) were incubated with transfected CHO cells expressing TL1A (10⁵ cells) for 30-60 minutes at 4 C. Cells were washed twice by centrifugation, aspiration of supernatant, and addition of fresh FACS buffer. Antibody binding to TL1A on cells was detected by incubating the cells in PE (Phycoerythrin) labeled goat anti-human IgG (Fc specific) antibody for 30 min at 4C, washing the cells 2× as above, and analyzing by FACS (FIG. 1).

[2] = target: T2, soluble TL1A-SH6 protein (his tagged) (Homo sapiens (Human), UniProt O95150 57-251, limits assumed); assay: FACS competition: TL1A SH6 at 200 ng/ml pre-incubated with dilutions of 10A4.F7, then added to hDR3 CHO cells, PE anti 6xHis detection
T2 construct: also called TL1A SH6 antigen; not shown: His tag (detected with anti 6xHis antibody)
T2 sequence: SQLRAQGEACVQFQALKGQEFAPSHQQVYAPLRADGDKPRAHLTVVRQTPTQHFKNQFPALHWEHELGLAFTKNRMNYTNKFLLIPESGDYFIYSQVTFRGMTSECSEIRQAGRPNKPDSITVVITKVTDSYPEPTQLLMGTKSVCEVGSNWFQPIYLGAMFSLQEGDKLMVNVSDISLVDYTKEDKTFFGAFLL
Method: (§3) TL1A SH6 at 200 ng/ml (50 ul) was incubated with dilutions of 10A4.F7 (50 ul) antibody or control IgG1 antibody (all reagents in FACS buffer). The mixture was incubated for 30 minutes and then added to 10⁵ hDR3 CHO cells in 100 ul of FACS buffer and incubated for 1 hr. Cells were washed twice in FACS buffer and TL1A binding to DR3 CHO cells was detected by staining cells with PE anti 6×His antibody (R&D systems) and evaluated by FACS.
(§4) Identification of anti-TL1A antibodies that block TL1A binding to DR3 were also done by FACS by using soluble TL1A-SH6 protein (his tagged) binding to hDR3 expressed on CHO cells (DR3 CHO). Anti-TL1A or control antibodies were incubated with TL1A SH6 antigen at 0.1-0.5 ug/ml for 30 minutes in FACS buffer and then hDR3 CHO cells were added to the antibody TL1A mix and incubated for 30 minutes. Cells were washed and TL1A binding to hDR3 CHO cells was detected with PE anti-His antibody followed by FACS. Blocking antibodies prevent TL1A SH6 from binding to hDR3 CHO cells (FIG. 2).

[3] = target: T2, soluble TL1A-SH6 protein (his tagged); assay: FACS, inhibition of the binding of TL1A SH6 (200 ng/ml) to hDR3 CHO cells, detection with PE anti-6xHis; the box prints no unit, the axis is Log nM
Method: as §3, §4

[4] = target: T3, Hu-TL1A-His (Homo sapiens, UniProt O95150); assay: SPR (Biacore), 10A4.F7 captured on a protein G surface, Hu-TL1A-His as analyte at 250, 200, 150, 100 and 50n
T3 construct: recombinant, His-tagged; also called Hu-TL1A-His antigen (Lot#50182AS151)
T3 sequence (ligand chain, looked up): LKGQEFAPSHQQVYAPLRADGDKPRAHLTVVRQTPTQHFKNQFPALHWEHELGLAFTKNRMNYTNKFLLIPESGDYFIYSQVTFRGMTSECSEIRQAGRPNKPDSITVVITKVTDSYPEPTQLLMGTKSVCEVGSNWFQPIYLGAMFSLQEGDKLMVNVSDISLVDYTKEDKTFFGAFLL
Method: Protein G chip (CM5) was made by coating it […] using acetate buffer (pH2.9). 10A4.F7 mab (7.5 ug/mL, 12 uL) was captured at 10 uL/min flow rate on Protein G surface. Hu-TL1A-His antigen (Lot#50182AS151) at multiple concentrations (250, 200, 150, 100 & 50n) were flowed over captured mab for 5 min at 25 ul/min and allowed to dissociate for 7.5 min. Protein G surface was regenerated with 10 uL of 50 mM NaOH and 5 uL of 25 mM HCL at 100 uL/min flow rate. Data was analyzed by using Biaevaluation 3.1. (FIG. 3)

[5] = target: T1, TL1A expressed on transfected CHO cells; assay: flow cytometry, titration of the antibody on TL1A CHO cells, PE anti-human IgG (Fc specific) detection
Method: as §1, §2

EC50 [1]: 0.407 nM
IC50 [2]: 0.524 nM
IC50 [3]: 0.525 nM
Kd [4]: 0.38 nM
koff [4]: 2.9e-05 s⁻¹
kon [4]: 75000 M⁻¹ s⁻¹
EC50 [5]: 0.4 nM
B1: monoclonal antibody 10A4.F7 (antibody, V domains shown)
VH: QLQLQESGPGLVKPSETLSLTCTVSGGSISSRSYYWGWIRQPPGKGLEWIGSIYYNGRTYYNPSLKSRVTISVDTSKNQFSLKLSSVTAADTAVYYCAREDYGDYGAFDIWGQGTMVTVSS
VL: AIQLTQSPSSLSASVGDRVTITCRASQGISSALAWYQQKPGKAPKLLIYDASSLESGVPSRFSGSGSGTDFTLTISSLQPEDFATYYCQQFNSYPLTFGGGTKVEIK
notes: Hybridoma subclone of parental clone 10A4 (KM mouse, human IgG kappa); also called TL1A 2596.10A4.F7
